Experimental data published in article PMC5834165, “Crystal structures of PCNA mutant proteins defective in gene silencing suggest a novel interaction site on the front face of the PCNA ring” (PLoS ONE, 2018).

B1: D41A/D42A mutant PCNA protein from Saccharomyces cerevisiae (natural protein)
chain: MLEAKFEEASLFKRIIDGFKDCVQLVNFQCKEDGIIAQAVAASRVLLVSLEIGVEAFQEYRCDHPVTLGMDLTSLSKILRCGNNTDTLTLIADNTPDSIILLFEDTKKDRIAEYSLKLMDIDADFLKIEELQYDSTLSLPSSEFSKIVRDLSQLSDSINIMITKETIKFVADGDIGSGSVIIKPFVDMEHPETSIKLEMDQPVDLTFGAKYLLDIIKGSSLSDRVGIRLSSEAPALFQFDLKSGFLQFFLAPKFNDEE
notes: PCNA, Saccharomyces cerevisiae, with D41A and D42A; also called D41A/D42A PCNA; encoded by the pol30-6 allele; source: E. coli, overexpressed, purified as described previously [35]
B2: L126A/I128A mutant PCNA protein from Saccharomyces cerevisiae (natural protein)
chain: MLEAKFEEASLFKRIIDGFKDCVQLVNFQCKEDGIIAQAVDDSRVLLVSLEIGVEAFQEYRCDHPVTLGMDLTSLSKILRCGNNTDTLTLIADNTPDSIILLFEDTKKDRIAEYSLKLMDIDADFAKAEELQYDSTLSLPSSEFSKIVRDLSQLSDSINIMITKETIKFVADGDIGSGSVIIKPFVDMEHPETSIKLEMDQPVDLTFGAKYLLDIIKGSSLSDRVGIRLSSEAPALFQFDLKSGFLQFFLAPKFNDEE
notes: PCNA, Saccharomyces cerevisiae, with L126A and I128A; also called L126A/I128A PCNA; encoded by the pol30-79 allele; source: E. coli, overexpressed, purified as described previously [35]
B3: R61A/D63A mutant PCNA protein from Saccharomyces cerevisiae (natural protein)
chain: MLEAKFEEASLFKRIIDGFKDCVQLVNFQCKEDGIIAQAVDDSRVLLVSLEIGVEAFQEYACAHPVTLGMDLTSLSKILRCGNNTDTLTLIADNTPDSIILLFEDTKKDRIAEYSLKLMDIDADFLKIEELQYDSTLSLPSSEFSKIVRDLSQLSDSINIMITKETIKFVADGDIGSGSVIIKPFVDMEHPETSIKLEMDQPVDLTFGAKYLLDIIKGSSLSDRVGIRLSSEAPALFQFDLKSGFLQFFLAPKFNDEE
notes: PCNA, Saccharomyces cerevisiae, with R61A and D63A; also called R61A/D63A PCNA; encoded by the pol30-8 allele; source: E. coli, overexpressed, purified as described previously [35]

Target: the molecule itself
Experiment: native gel or EMSA; proteins at 0.1, 0.5, 1.0 mg/ml in 10 mM Tris-Cl pH 7.6, 150 mM NaCl, 2.5% Ficoll-400, 10 mM EDTA, 5 min; 4-20% gradient nondenaturing Tris-Glycine gel at 4°C; Coomassie blue; self-association (trimer)

Stoichiometry N, 3:
B1
B2
B3
